From paper PMC8079166 (Biochemical Journal, 2021) come the findings set out here.

B1: HIV-1 LAI Nef ΔNΔL (residues 60–158;174–205) (domain or fragment)
chain: AQEEEEVGFPVTPQVPLRPMTYKAAVDLSHFLKEKGGLEGLIHSQRRQDILDLWIYHTQGYFPDWQNYTPGPGVRYPLTFGWCYKLVPVEPDKVEEANKDDPEREVLEWRFDSRLAFHHVARELHPEYFKN
B2: Nef ΔNΔL preincubated with 50 µM FynR96 SH3 (complex)
chain 1: B1 chain
chain 2: not shown
modifications: RED-NHS dye label
B3: Nef ΔNΔL preincubated with 50 µM Fyn_(R96W) SH3 (complex)
chain 1: B1 chain
chain 2: not shown
modifications: RED-NHS dye label
B4: Nef ΔNΔL preincubated with 50 µM Fyn_(R96I) SH3 (complex)
chain 1: B1 chain
chain 2: not shown
modifications: RED-NHS dye label
B5: HIV-1 LAI Nef WLΔN (residues 56–205) (domain or fragment)
chain: AWLEAQEEEEVGFPVTPQVPLRPMTYKAAVDLSHFLKEKGGLEGLIHSQRRQDILDLWIYHTQGYFPDWQNYTPGPGVRYPLTFGWCYKLVPVEPDKVEEANKGENTSLLHPVSLHGMDDPEREVLEWRFDSRLAFHHVARELHPEYFKN
B6: Nef WLΔN preincubated with 50 µM FynR96 SH3 (complex)
chain 1: B5 chain
chain 2: not shown
modifications: RED-NHS dye label
B7: Nef WLΔN preincubated with 50 µM Fyn_(R96I) SH3 (complex)
chain 1: B5 chain
chain 2: not shown
modifications: RED-NHS dye label
B8: Nef WLΔN preincubated with 50 µM Fyn_(R96W) SH3 (complex)
chain 1: B5 chain
chain 2: not shown
modifications: RED-NHS dye label
B9: Fyn SH3 domain R96W (domain or fragment)
chain: not shown
B10: Full-length LAI Nef preincubated with 50 µM Fyn_(R96W) SH3 (complex)
chain 1: […]
chain 2: not shown
modifications: RED-NHS dye label
B11: Full-length LAI Nef preincubated with 50 µM Fyn_(R96I) SH3 (complex)
chain 1: […]
chain 2: not shown
modifications: RED-NHS dye label
B12: Fyn SH3 domain, wild type (FynR96) (domain or fragment)
chain: not shown
B13: Full-length LAI Nef preincubated with 50 µM FynR96 SH3 (complex)
chain 1: […]
chain 2: not shown
modifications: RED-NHS dye label
B14: Fyn SH3 domain R96I (domain or fragment)
chain: not shown

Assay [1] concerns the target p85 subunit of PI3 kinase, nSH2–iSH2–cSH2 fragment (UniProt P27986 322-724). The assay can be described thus: MST.
Assay [2] has as its target HIV-1 LAI Nef, full-length (HIV-1, LAI isolate, UniProt P03406). The experiment in a line: ITC. In general terms: ITC needs no label: the signal is the heat of the interaction.
The target of assay [3] is B5. The assay can be described thus: ITC.
In assay [4] the target is T1, HIV-1 LAI Nef ΔN (residues 60–205) (HIV-1, LAI isolate, UniProt P03406 60-205). The experiment in a line: ITC.
The target of assay [5] is B1. The experiment in a line: ITC.
For assay [6], the target named is HIV-1 SF2 Nef, full-length (HIV-1, SF2 isolate, UniProt P03407). The assay can be described thus: ITC.
In assay [7] the target is B5. The experiment in a line: MST.
The target of assay [8] is T1, HIV-1 LAI Nef ΔN (residues 60–205). The experiment in a line: MST.
Assay [9] deals with B1. The assay can be described thus: MST.

For orientation: Kd means the free concentration of one partner at which half of the binding sites on the other are occupied at equilibrium, for simple one-to-one binding. With B1, the affinity in [1], expressed as Kd, was 53 ± 3 µM.
As to B2, the affinity in assay [1], expressed as Kd, was 47 ± 8 µM.
B3 registered a Kd in assay [1] of 79 ± 16 µM. This Kd lies about 1.7-fold higher than the previous one.
B4: in assay [1], binding was put at a Kd of 96 ± 18 µM.
For the molecule B5, in assay [1], the Kd came to 72 ± 8 µM.
In the case of B6, binding in assay [1] was put at a Kd of 104 ± 11 µM. The Kd values of the last two molecules are within 1.5-fold of each other.
In assay [1], B7 registered an equilibrium dissociation constant (Kd) of 107 ± 12 µM.
On to B8, for which binding in [1] was put at a Kd of 108 ± 14 µM.
The stoichiometry N is the number of molecules, sites or subunits per partner or assembly. On to B9, for which the Kd is 1.43 µM in [2]; 1.45 µM in assay [3]; 1.28 µM in [4]; 0.78 µM in assay [5]; 0.12 µM in assay [6]. For the same molecule, the dH was -12 kcal/mol in [2]; -7 kcal/mol in assay [3]; -13.5 kcal/mol in assay [4]; -11.2 kcal/mol in assay [5]; -13.5 kcal/mol in assay [6]. Besides, the “stoichiometry N” value in assay [2] is 0.96; in [3] it was 0.94; in assay [4], 0.9; in assay [5] it was 0.98; in [6] it was 0.91.
As to B10, in assay [1], the affinity, expressed as Kd, was 161 ± 17 µM.
In assay [1], B11 gave a Kd of 135 ± 10 µM.
For B12, the dissociation constant (Kd) is 58.5 µM in assay [2]; 50.8 µM in assay [3]; 83.3 µM in [4]; 24.3 µM in assay [5]; 28.7 µM in assay [6]. In addition, the dH is -11 kcal/mol in assay [2]; -3.39 kcal/mol in [3]; -8.2 kcal/mol in assay [4]; -3.35 kcal/mol in [5]; -14.1 kcal/mol in assay [6].
In assay [1], B13 showed a Kd of 141 ± 14 µM.
With SSVVGWPTVRERMRRAEPA [Nef fragment containing H1 (residues 8–26)], the Kd was determined as 1350 ± 219 µM in assay [7], 699 ± 252 µM in assay [8] and 303 ± 50 µM in assay [9].
Consider B14, for which the dissociation constant Kd came to 0.79 µM in assay [2]; 7.55 µM in assay [3]; 5.06 µM in assay [4]; 3.86 µM in assay [5]; 0.02 µM in assay [6]; 24 ± 8 µM in assay [9]. The dH in [2] was -9.73 kcal/mol; in assay [3], -5.14 kcal/mol; in assay [4], -9.49 kcal/mol; in [5], -8.13 kcal/mol; in [6], -18.5 kcal/mol. The “stoichiometry N” value stood at 0.93 in [2]; 1.01 in [3]; 0.87 in assay [4]; 0.97 in assay [5]; 0.98 in assay [6].
